Measurements: the supplement of paper PMC12338614
± gives the uncertainty stated by the source.

B1: library; numbered along this chain (parent)
chain: MEVVDPQQLGMFTEGELMSVGMDTFIHRIDSTEVIYQPRRKRAKLIGKYLMGDLLGEGSYGKVKEVLDSETLCRRAVKILKKKKLRRIPNGEANVKKEIQLLRRLRHKNVIQLVDVLYNEEKQKMYMVMEYCVCGMQEMLDSVPEKRFPVCQAHGYFCQLIDGLEYLHSQGIVHKDIKPGNLLLTTGGTLKISDLGVAEALHPFAADDTCRTSQGSPAFQPPEIANGLDTFSGFKVDIWSAGVTLYNITTGLYPFEGDNIYKLFENIGKGSYAIPGDCGPPLSDLLKGMLEYEPAKRFSIRQIRQHSWFRKKHPPAEAPVPIPPSPDTKDRWRSMTVVPYLEDLHGADEDEDLFDIEDDIIYTQDFTVPGQVPEEEASHNGQRRGLPKAVCMNGTEAAQLSTKSRAEGRAPNPARKACSASSKIRRLSACKQQ

Variants of: B1
Test: STK11 functional score (HeLa growth suppression), rescaled enrichment; synonymous median = 1, nonsense median = 0 (normalised score)
Conditions: with HeLa; variant type: missense
In short: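 In HeLa, Bxb1 integrated POPCode codon-randomised libraries of codon-optimised STK11 at an AAVS1 landing pad; three regions were each transfected three times. Integrants, marked as BFP-negative and mCherry-positive, were FACS-sorted 4–5 days after electroporation and expanded for about two weeks before tiled gDNA amplicons were sequenced on NextSeq (~2 million reads per tile). Each functional score is a post/pre-selection log ratio corrected to wild type, rescaled to the synonymous and nonsense medians, and merged across codons and replicate transfections, with error estimated by bootstrapping.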

Row | Variant | STK11 functional score
1 | R383I | 1.57 ± 0.22
2 | R383G | 1.11 ± 0.35
3 | S283I | 0.942 ± 0.12
4 | F366P | 1.62 ± 0.14
5 | G135T | 1.66 ± 0.28
6 | S378W | 0.76 ± 0.1
7 | L341I | 1.56 ± 0.18
8 | L341F | 0.562 ± 0.13
9 | P294I | 0.351 ± 0.081
10 | I161P | 0.918 ± 0.66
11 | A218C | 0.947 ± 0.27
12 | R297C | -0.195 ± 0.096
13 | F219H | 1.18 ± 0.66
14 | V243G | 0.469 ± 0.16
15 | L105Y | 1.36 ± 0.08
16 | S428I | 1.62 ± 0.22
17 | I356R | 1.19 ± 0.38
18 | G346H | 1.6 ± 0.14
19 | V133T | 1 ± 0.41
20 | S419K | 1.39 ± 0.21
21 | P314F | 1.18 ± 0.26
22 | L286S | 0.0276 ± 0.19
23 | A43T | 1.43 ± 0.16
24 | K108F | 1.04 ± 0.3

Row | Variant | STK11 functional score
25 | Q214G | 1.57 ± 0.22
26 | E375I | 1.59 ± 0.28
27 | E121S | 1.17 ± 0.1
28 | D30E | 1.13 ± 0.49
29 | V114P | 0.872 ± 0.53
30 | S193L | 0.696 ± 0.12
31 | S193A | 0.853 ± 0.12
32 | Q364L | 1.33 ± 0.24
33 | A377M | 1.51 ± 0.27
34 | A273S | 0.646 ± 0.15
35 | R40C | 1.39 ± 0.074
36 | G61A | 1.35 ± 0.32
37 | K175F | 0.988 ± 0.35
38 | Q371A | 1.6 ± 0.27
39 | E165S | 1.39 ± 0.38
40 | L50I | 1.62 ± 0.099
41 | L285R | -0.201 ± 0.1
42 | K262A | 1.23 ± 0.36
43 | K262Y | 1.29 ± 0.3
44 | M335V | 1.42 ± 0.13
45 | N259W | 0.92 ± 0.36
46 | C158L | 0.856 ± 0.2
47 | P38E | 1.36 ± 0.39
48 | P38A | 1.06 ± 0.29

Row | Variant | STK11 functional score
49 | G91H | 0.418 ± 0.46
50 | K416Q | 1.46 ± 0.38
51 | D194V | -0.261 ± 0.096
52 | D258L | 0.539 ± 0.12
53 | D355L | 1.58 ± 0.14
54 | T13R | 1.08 ± 0.37
55 | T336D | 0.148 ± 0.11
56 | I79Y | -0.0325 ± 0.073
57 | W332C | 0.361 ± 0.46
58 | L201V | 0.808 ± 0.096
59 | K81H | 1.25 ± 0.083
60 | Q123C | 1.35 ± 0.34
61 | P413D | 1.6 ± 0.33
62 | P413Y | 1.47 ± 0.26
63 | E199A | 1.44 ± 0.23
64 | D327L | 1.55 ± 0.21
65 | K41H | 1.44 ± 0.13
66 | F255D | 0.348 ± 0.1
67 | K122W | 1.4 ± 0.36
68 | G385F | 1.36 ± 0.46
69 | G385V | 0.433 ± 0.12
70 | L164T | 0.864 ± 0.19
71 | G276S | 1.42 ± 0.27
72 | N247W | 0.698 ± 0.082

Row | Variant | STK11 functional score
73 | N247P | -0.0537 ± 0.096
74 | N247Q | 1.17 ± 0.23
75 | N247M | 0.7 ± 0.58
76 | Y362R | 1.39 ± 0.15
77 | S271T | 1.17 ± 0.2
78 | Y272G | 1.2 ± 0.21
79 | I224V | 0.835 ± 0.24
80 | I224F | 1.09 ± 0.23
81 | I224M | 1.11 ± 0.48
82 | P203H | 0.686 ± 0.62
83 | C418V | 1.62 ± 0.19
84 | H306E | 1.19 ± 0.38
85 | K84P | 1.52 ± 0.45
86 | S401N | 1.4 ± 0.14
87 | K235T | 0.534 ± 0.21
88 | K235I | 1.06 ± 0.65
89 | I424M | 1.42 ± 0.38
90 | L400G | 1.48 ± 0.14
91 | P280G | 1.46 ± 0.23
92 | P280T | 1.53 ± 0.25
93 | S19Y | 1.01 ± 0.15
94 | S19V | 0.694 ± 0.18
95 | S19E | 1.45 ± 0.34
96 | T402N | 0.935 ± 0.33

Row | Variant | STK11 functional score
97 | R426D | 1.42 ± 0.27
98 | V116C | 0.415 ± 0.14
99 | Y340T | 1.58 ± 0.14
100 | A347G | 1.12 ± 0.28
101 | W239G | -0.0583 ± 0.093
102 | W239I | -0.18 ± 0.095
103 | W239T | -0.0973 ± 0.1
104 | W239L | 0.325 ± 0.1
105 | P179E | 0.0456 ± 0.13
106 | K44C | 1.12 ± 0.2
107 | S334D | 1.45 ± 0.13
108 | V337I | 1.48 ± 0.16
109 | V337Y | 0.9 ± 0.57
110 | K312L | 1.3 ± 0.12
111 | C151R | 1.07 ± 0.59
112 | C151E | 0.756 ± 0.29
113 | T209R | 1.27 ± 0.2
114 | P324I | 1.56 ± 0.27
115 | P315E | 1.57 ± 0.26
116 | P315Q | 1.34 ± 0.075
117 | Q37S | 1.34 ± 0.13
118 | Q170G | 1.37 ± 0.37
119 | R103W | 0.732 ± 0.31
120 | L55M | 0.938 ± 0.19

Row | Variant | STK11 functional score
121 | A205V | 1.09 ± 0.32
122 | L72M | 0.649 ± 0.15
123 | K423Y | 1.41 ± 0.29
124 | A406P | 1.21 ± 0.54
125 | L160P | -0.129 ± 0.071
126 | G196A | 0.488 ± 0.5
127 | I88G | 0.665 ± 0.23
128 | Y156D | 0.293 ± 0.4
129 | Y156G | 0.044 ± 0.076
130 | F234W | 1.44 ± 0.21
131 | A93V | 0.101 ± 0.08
132 | I46D | 0.149 ± 0.15
133 | Q382S | 1.5 ± 0.19
134 | T249G | 0.293 ± 0.1
135 | E92I | -0.0755 ± 0.16
136 | I322V | 1.08 ± 0.23
137 | R333G | 1.47 ± 0.27
138 | R333L | 1.32 ± 0.35
139 | R75D | 1.68 ± 0.28
140 | S404Y | 0.966 ± 0.14
141 | E256W | 1.65 ± 0.13
142 | Y246E | 0.0519 ± 0.077
143 | G10P | 1.18 ± 0.49
144 | E70G | 0.582 ± 0.42

Row | Variant | STK11 functional score
145 | D229G | 1.03 ± 0.24
146 | N94Q | 1.2 ± 0.65
147 | V143W | 0.622 ± 0.081
148 | N109T | 0.928 ± 0.11
149 | Q305M | 1.51 ± 0.15
150 | P281K | 1.26 ± 0.79
151 | P281M | 1.31 ± 0.21
152 | Y36K | 1.23 ± 0.15
153 | D284I | 1.14 ± 0.43
154 | D284F | 0.579 ± 0.099
155 | E120Y | 0.964 ± 0.2
156 | E120S | 1.42 ± 0.18
157 | Y126V | 0.762 ± 0.16
158 | F148T | -0.101 ± 0.1
159 | L17H | 1.53 ± 0.16
160 | P387F | 1.14 ± 0.64
161 | P369L | 1.13 ± 0.25
162 | P254C | 0.821 ± 0.47
163 | T395M | 1.05 ± 0.66
164 | S69P | 1.04 ± 0.15
165 | F354N | 1.6 ± 0.19
166 | F354Y | 1.31 ± 0.15
167 | R147G | 1.07 ± 0.086
